Results on 10 molecules are retold here after article PMC10945755 (Proceedings of the National Academy of Sciences of the …, 2024).

As usually defined, the stoichiometry N is a count of units in the complex or per binding partner. For orientation: Kd means a measure of binding affinity in units of concentration.

B1: Trx-NAP1(1-75) (domain or fragment, UniProt Q9H6S1 1-75, looked up)
chain: MDALVEDDICILNHEKAHKRDTVTPVSIYSGDESVASHFALVTAYEDIKKRLKDSEKENSLLKKRIRFLEEKLIA
B2: NAP1(1-75) (domain or fragment, UniProt Q9H6S1 1-75, looked up)
chain: B1 chain
B3: RB1CC1(1396-1594) (domain or fragment, UniProt Q8TDY2 1396-1594, looked up)
chain: SFVPSPYVATAPELYGACAPELPGESDRSAVETADEGRVDSAMETSMMSVQENIHMLSEEKQRIMLLERTLQLKEEENKRLNQRLMSQSMSSVSSRHSEKIAIRDFQVGDLVLIILDERHDNYVLFTVSPTLYFLHSESLPALDLKPGEGASGASRRPWVLGKVMEKEYCQAKKAQNRFKVPLGTKFYRVKAVSWNKKV
B4: RB1CC1(1343-1395) (domain or fragment, UniProt Q8TDY2 1343-1395, looked up)
chain: KENIINDLSDKLKSTMQQQERDKDLIESLSEDRARLLEEKKKLEEEVSKLRSS
B5: TAX1BP1(123-151) (domain or fragment, UniProt Q86VP1 123-151, looked up)
chain: SSPVEELLTMEDEGNSDMLVVTTKAGLLE
B6: GABARAP (natural protein)
chain: MKFVYKEEHPFEKRRSEGEKIRKKYPDRVPVIVEKAPKARIGDLDKKKYLVPSDLTVGQFYFLIRKRIHLRAEDALFFFVNNVIPPTSATMGQLYQEHHEEDFFLYIAYSDESVYGL
B7: RB1CC1(1286-1395) (domain or fragment, UniProt Q8TDY2 1286-1395, looked up)
chain: SLVAELQEKLQEEKAKFLEQLEEQEKRKNEEMQNVRTSLIAEQQTNFNTVLTREKMRKENIINDLSDKLKSTMQQQERDKDLIESLSEDRARLLEEKKKLEEEVSKLRSS
B8: RB1CC1(1450-1594) (domain or fragment, UniProt Q8TDY2 1450-1594, looked up)
chain: HMLSEEKQRIMLLERTLQLKEEENKRLNQRLMSQSMSSVSSRHSEKIAIRDFQVGDLVLIILDERHDNYVLFTVSPTLYFLHSESLPALDLKPGEGASGASRRPWVLGKVMEKEYCQAKKAQNRFKVPLGTKFYRVKAVSWNKKV
B9: NAP1(33-75) (domain or fragment, UniProt Q9H6S1 33-75, looked up)
chain: ESVASHFALVTAYEDIKKRLKDSEKENSLLKKRIRFLEEKLIA
B10: TAX1BP1(133-151) (domain or fragment, UniProt Q86VP1 133-151, looked up)
chain: EDEGNSDMLVVTTKAGLLE

Where two headings read alike, the source gives them in different places. Where only a bound is given, the exact number is not on record here.

Series [1] addresses T1, Trx-TAX1BP1(1-237) (UniProt Q86VP1 1-237). Briefly: SEC. Background: SEC sorts molecules by how far they enter the pores of the column.
A further series concerns the target Nano-RB1CC1(1286-1594) (UniProt Q8TDY2 1286-1594). Briefly: SEC.
Series [2] has as its target TAX1BP1(1-237)/RB1CC1(1286-1594) complex (Trx-TAX1BP1(1-237) with Nano-RB1CC1(1286-1594)) (UniProt Q86VP1 1-237; Q8TDY2 1286-1594). Briefly: SEC.
In series [3] the target is TAX1BP1(1-237)/RB1CC1(1286-1594) R1375A (UniProt Q86VP1 1-237; Q8TDY2 1286-1594, R1375A). Nature of the series: SEC.
Series [4] has as its target T2, TAX1BP1(1-237) (UniProt Q86VP1 1-237, labeled (label not named) in the spectral shift binding assay). Nature of the series: SEC.
The series “crystal structure” concerns the molecule itself. Nature of the series: crystal structure.
The series “GABARAP” has as its target B6. Nature of the series: ITC.
The next series has as its target GABARAPL1 (UniProt Q9H0R8 1-117). Briefly: ITC. On the technique in general: ITC needs no label: the signal is the heat of the interaction.
The target of the next series is GABARAPL2 (UniProt P60520 1-117). Briefly: SEC.
For series [5], the target named is TAX1BP1(1-237)/RB1CC1(1286-1395) complex (UniProt Q86VP1 1-237; Q8TDY2 1286-1395). Briefly: SEC.
Series [6] has as its target TAX1BP1(1-237)/NAP1(1-75)/RB1CC1(1286-1594) ternary complex (UniProt Q86VP1 1-237; Q9H6S1 1-75; Q8TDY2 1286-1594). Nature of the series: SEC.
The target of a further series is TAX1BP1(1-121) (UniProt Q86VP1 1-121, 15N-labeled in the NMR titrations). Nature of the series: ITC.
The series “AUC” deals with the molecule itself. Nature of the series: AUC.
In series [7] the target is T2, TAX1BP1(1-237). Briefly: spectral shift binding assay.
In series [8] the target is T1, Trx-TAX1BP1(1-237). Briefly: AUC.
Series [9] deals with T2, TAX1BP1(1-237). Nature of the series: SEC. The source holds these as a separate data set.

T2 sequence (Q86VP1 1-237): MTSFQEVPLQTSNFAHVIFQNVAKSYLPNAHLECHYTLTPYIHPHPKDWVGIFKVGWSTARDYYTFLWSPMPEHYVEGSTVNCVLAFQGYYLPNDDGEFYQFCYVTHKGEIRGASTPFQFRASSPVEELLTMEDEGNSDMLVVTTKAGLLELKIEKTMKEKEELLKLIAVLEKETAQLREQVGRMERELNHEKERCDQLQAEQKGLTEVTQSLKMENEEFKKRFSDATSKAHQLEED
T1 sequence (Q86VP1 1-237): as above
TAX1BP1(1-121), sequence (Q86VP1 1-121): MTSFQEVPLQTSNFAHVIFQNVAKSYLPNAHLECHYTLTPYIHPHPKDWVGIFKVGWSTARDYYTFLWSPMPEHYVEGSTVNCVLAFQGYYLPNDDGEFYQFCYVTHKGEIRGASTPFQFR
GABARAPL2, sequence (P60520 whole entry): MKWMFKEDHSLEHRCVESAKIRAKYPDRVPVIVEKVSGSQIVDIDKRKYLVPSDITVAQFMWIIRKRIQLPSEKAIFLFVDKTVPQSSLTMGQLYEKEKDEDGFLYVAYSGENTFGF
GABARAPL1, sequence (Q9H0R8 whole entry): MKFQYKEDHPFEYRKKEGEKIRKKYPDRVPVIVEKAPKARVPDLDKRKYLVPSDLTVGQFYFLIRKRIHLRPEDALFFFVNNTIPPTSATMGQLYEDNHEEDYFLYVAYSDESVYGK
TAX1BP1(1-237)/RB1CC1(1286-1395) complex, sequence (Q86VP1 1-237, one chain of several): as the sequence (Q86VP1 1-237) above
TAX1BP1(1-237)/RB1CC1(1286-1594) R1375A, sequence (Q86VP1 1-237, stated change not applied, one chain of several): as the sequence (Q86VP1 1-237) above
TAX1BP1(1-237)/RB1CC1(1286-1594) complex (Trx-TAX1BP1(1-237) with Nano-RB1CC1(1286-1594)), sequence (Q86VP1 1-237, one chain of several): as the sequence (Q86VP1 1-237) above
TAX1BP1(1-237)/NAP1(1-75)/RB1CC1(1286-1594) ternary complex, sequence (Q86VP1 1-237, one chain of several): as the sequence (Q86VP1 1-237) above

Regarding B1, the binding result (with Trx-TAX1BP1(1-237) [1]; with Nano-RB1CC1(1286-1594); in series [2]) was “binds” each time. As for B2, the binding result in series [3] was “binds”.

As for B3, the binding result with TAX1BP1(1-237) [4] was “binds”. On to B4, for which, in “crystal structure”, the “stoichiometry N” value is 2. As to B5, the dissociation constant Kd with GABARAP was found to be 4.07 µM; with GABARAPL1, 9.54 µM. In addition, the binding result with GABARAPL2 is given as “binds”. Turning to B6, the binding result (with TAX1BP1(1-237) [4]; in [5]; in series [6]) was “binds” in each case.

Consider B7, for which the dissociation constant (Kd) is around 4.91 µM in the series with TAX1BP1(1-121) and around 1.13 µM with TAX1BP1(1-237) [7]. In addition, in the series “AUC”, the “stoichiometry N” value came out at 2.

In the case of B8, the dissociation constant Kd with TAX1BP1(1-237) [7] is above 136 µM. On to B9, for which the binding result in the series with Trx-TAX1BP1(1-237) [8] and with TAX1BP1(1-237) [9] was “binds” each time.

B10: in the series with GABARAP, the binding result is reported as “binds”.
